Here are results for 84 variants from the RNAGym collection of RNA variant scans (doi:10.1073/pnas.2313332121).

Variants at the floor of the assay were thinned out. A value given as a limit tells only on which side of the number the result lay.

The labels stand for the following.
B1: TPR 5TU (parent)
chain: GGAUCUUCUCGAUCUAACAAAAAAGACAAAUCUGCCACAAAGCUUGAGAGCAUCUUCGGAUGCAGAGGCGGCAGCCUUCGGUGGCGCGAUAGCGCCAACGUUCUCAACUAUGACACGCAAAACGCGUGCUCCGUUGAAUGGAGUUUAUCAUG

In this data set the parent is B1. Put plainly: polymerase ribozyme fitness, log enrichment relative to wild type (log ratio); higher = more active; in vitro selection for triplet polymerase activity. An outline of the steps: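 Mutant libraries of each subunit of a heterodimeric triplet polymerase ribozyme were built by PCR and transcribed. Each library went through one round of in vitro selection in triplicate: annealing with biotinylated primer, partner subunit and triplets, frozen incubation at −7 °C, gel excision of extended constructs, streptavidin-bead capture and RT-PCR. Input and output libraries were Illumina-sequenced; only genotypes with ≥10 input reads and ≥1 read per output were kept. Fitness is log2(genotype enrichment/wild-type enrichment), using inverse-variance-weighted replicate averages.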
On to A40U C51G, for which the “polymerase ribozyme fitness (log ratio)” value is -1.26.
For the variant A40U C51A, the “polymerase ribozyme fitness (log ratio)” value was -0.707.
In the case of A41C G80U C95A, the “polymerase ribozyme fitness (log ratio)” value was -1.46.
As to C36U U61A C95U U102C, the “polymerase ribozyme fitness (log ratio)” value is -4.
As for G46C A47U U53A C85U U130C A150G, the “polymerase ribozyme fitness (log ratio)” value was no more than -4.2.
On to C14U A52G G62A C96G U104G, for which the “polymerase ribozyme fitness (log ratio)” value is no more than -4.2.
As for A12U A41C U55G A66G G88U G94U U134A G136C U151A, the “polymerase ribozyme fitness (log ratio)” value was no more than -4.2.
Turning to U55A G71A G80C, the “polymerase ribozyme fitness (log ratio)” value is no more than -4.2.
Next, A17U G50A G67U G74A U134G: no more than -4.2; G62U C85U C96U C118U: -1.28; G62A A115G A120G: -0.97.
Take C14U G42A G59A C87A: the “polymerase ribozyme fitness (log ratio)” value was no more than -4.2.
For the variant U45G C93U G141C, the “polymerase ribozyme fitness (log ratio)” value is no more than -4.2.
With A21U C35A A106U A119U A138C, the “polymerase ribozyme fitness (log ratio)” value was no more than -4.2.
With A3G A39U G83U G84U C114U A119G, the “polymerase ribozyme fitness (log ratio)” value was no more than -4.2.
Take C72U U77C C118G: the “polymerase ribozyme fitness (log ratio)” value is no more than -4.2.
G83A C129G: the “polymerase ribozyme fitness (log ratio)” value was -3.81.
As for A26U U31G C36U G81U C149G, the “polymerase ribozyme fitness (log ratio)” value was no more than -4.2.
Consider U4G A30G C32A C85A G141C, for which the “polymerase ribozyme fitness (log ratio)” value was no more than -4.2.
A39U U56A C116U: the “polymerase ribozyme fitness (log ratio)” value was -2.74.
The result for A29G G68C C96U U102G U135G C149A reads no more than -4.2.
As for A20G C54A G68A C87U, the “polymerase ribozyme fitness (log ratio)” value was no more than -4.2.
Next, A40C C99U A137U U146A: -4.14.
On to G59C C87U U109G, for which the “polymerase ribozyme fitness (log ratio)” value is -1.03.
For A64G G68U U144A, the “polymerase ribozyme fitness (log ratio)” value was no more than -4.2.
The result for A39C G50A G86A G94U G133A reads no more than -4.2; that for A19U C96U C125G, -0.589; that for A3G C96U, -0.935.
Turning to A16C A21U G59A G94A A98G, the “polymerase ribozyme fitness (log ratio)” value was -2.66.
The result for A28U C38A C63U G83A C103A reads no more than -4.2.
C8U C38G A60C A107G G141C U151C: the “polymerase ribozyme fitness (log ratio)” value was no more than -4.2.
Regarding U55A A119G U148G, the “polymerase ribozyme fitness (log ratio)” value was -3.77.
Regarding C57A C129U C131U U134C, the “polymerase ribozyme fitness (log ratio)” value was 1.02.
Turning to U7A U61A A119U, the “polymerase ribozyme fitness (log ratio)” value was no more than -4.2.
For the variant U56A C93U U102G G140A, the “polymerase ribozyme fitness (log ratio)” value was no more than -4.2.
As to A40U C93U, the “polymerase ribozyme fitness (log ratio)” value was -0.794.
The result for C116A U139A U148A reads -4.12.
Next, A24C C54G G74A U82A A89U U146A: no more than -4.2; C38U U56A G68A C95A: no more than -4.2.
As to C8G G48A C54U C69G C85G A91C, the “polymerase ribozyme fitness (log ratio)” value is no more than -4.2.
Next, C27A C36U G74C C75G G84U C93G A97C G117A: no more than -4.2; A41G U56A G58C C87A C108G G143C: no more than -4.2.
With A28G U55A G58C A122G, the “polymerase ribozyme fitness (log ratio)” value was no more than -4.2.
With U15G C18A C54A G94A G117C C125A, the “polymerase ribozyme fitness (log ratio)” value is -1.44.
Turning to A16G C85G, the “polymerase ribozyme fitness (log ratio)” value is -2.6.
Next, U15G A29U C76A G83A: no more than -4.2; U9A U13G A29C U82G G84U A91G G94U G128C G133A A138U: no more than -4.2.
The result for A12C U61A G84U A97U U145C reads no more than -4.2.
As to A12G C18G A21U G68C G83A A97U C125U G140U G143U, the “polymerase ribozyme fitness (log ratio)” value was no more than -4.2.
For G84A C87U C95G A142C, the “polymerase ribozyme fitness (log ratio)” value is -2.26.
For the variant C8U U9A C10U A17G A66G A91C, the “polymerase ribozyme fitness (log ratio)” value was no more than -4.2.
The result for A3G U6C A64U G70C G86A U90G C93U G133C C149U reads no more than -4.2; that for G48C C87A U130G, no more than -4.2.
Next, C43U U45G C131A G136U: no more than -4.2.
The result for A52C C87A C93U A98U G128U U148G reads no more than -4.2; that for U6G A20U G25A U31G C87A C96U C129A G136A G140C A150C, no more than -4.2.
Take U61A U109G: the “polymerase ribozyme fitness (log ratio)” value was -2.11.
With A40C G92U U135G, the “polymerase ribozyme fitness (log ratio)” value was -2.96.
For C14G A26U A28G C35A U56C C57U U90G, the “polymerase ribozyme fitness (log ratio)” value was no more than -4.2.
Consider U56A C75U A121C G128U, for which the “polymerase ribozyme fitness (log ratio)” value is -2.63.
Next, C36G G92C A121C C125A: no more than -4.2.
With C87A G128A U146C U148A, the “polymerase ribozyme fitness (log ratio)” value was no more than -4.2.
Regarding A24G A26U C38U A47U C85U C116U C125A, the “polymerase ribozyme fitness (log ratio)” value is no more than -4.2.
As to C27U A60G C93A C125G G136A, the “polymerase ribozyme fitness (log ratio)” value was -2.85.
As to A30U U55A C79U C87U A115C C118G, the “polymerase ribozyme fitness (log ratio)” value is no more than -4.2.
Next, C96G G141U: 0.463; C32U G65A G71C G94U: no more than -4.2; C14A C54U C118U G136U: -4.12.
Take U55A C69U C85A C87U: the “polymerase ribozyme fitness (log ratio)” value was no more than -4.2.
Regarding A52U U55G C76U, the “polymerase ribozyme fitness (log ratio)” value was -4.08.
For the variant G11U U31C U53A A66G C85A C87A, the “polymerase ribozyme fitness (log ratio)” value is no more than -4.2.
Next, C27U A73G C79A G140C: no more than -4.2.
A12C A22G C54A G70U G100A C116G G117A U135G: the “polymerase ribozyme fitness (log ratio)” value was no more than -4.2.
With G67A G83A, the “polymerase ribozyme fitness (log ratio)” value was no more than -4.2.
For the variant G84A G141A, the “polymerase ribozyme fitness (log ratio)” value was -0.675.
As for C43U G88A G94A A122G, the “polymerase ribozyme fitness (log ratio)” value is no more than -4.2.
For U127G, the “polymerase ribozyme fitness (log ratio)” value is -3.06.
With U45C U56A A64C G74A G94C C114U A115U, the “polymerase ribozyme fitness (log ratio)” value is no more than -4.2.
Regarding U9C U33G A39U U55A C57U A91C C95A G140U, the “polymerase ribozyme fitness (log ratio)” value was no more than -4.2.
On to C87U A120C G152U, for which the “polymerase ribozyme fitness (log ratio)” value was -3.33.
A41U A49U: the “polymerase ribozyme fitness (log ratio)” value is -2.28.
Take C10U A16U C18U G71C C108G: the “polymerase ribozyme fitness (log ratio)” value was no more than -4.2.
As for A47C G50A G83A, the “polymerase ribozyme fitness (log ratio)” value is -2.44.
For A20C U55A G71A C96U, the “polymerase ribozyme fitness (log ratio)” value is -3.43.
